Experimental data published in publication PMC7835349 (Communications Biology, 2021).
Values joined by “and” are separate entries in the source; they are usually repeats but may differ in a detail not shown here. Equal entries are not always repeated.

How the values were obtained:
cleaved caspase-3 (CC3) = assay: Cleaved caspase-3 in RS4;11 tumours by MSD ELISA; format: in vivo, C.B-17 SCID mouse
Protocol: Tumours were excised, snap frozen in liquid nitrogen and stored at –80 °C. Tumours were homogenised in lysis buffer containing protease and phosphatase inhibitors, protein concentration determined by Pierce BCA Protein Assay Kit and diluted in lysis buffer to a protein concentration of 0.4 μg/μL. Cleaved caspase-3 (CC3) was measured using the mesoscale cleaved caspase-3 (Asp175) assay whole cell lysate kit according to manufacturer’s instructions. Induction of CC3 was expressed as fold change of treated tumours over vehicle control.

[1] = Tumour pharmacokinetics (released and total AZD4320) in RS4;11 tumours; format: in vivo, C.B-17 SCID mouse; details: for Concentration of Released AZD4320 in Tumour, Mean / Concentration of Released AZD4320 in Tumour, individual samples (Fig 5g/5h) / Concentrations of Total AZD4320 in Tumour, individual samples: 10 mg/kg AZD4320 equivalent; for Concentration of Released AZD4320 in Tumour, individual samples (Fig 5g/5h) / Concentrations of Total AZD4320 in Tumour, individual samples / Concentration of total AZD4320 in tumour: listed as SPL-8977; for Mean concentration of total AZD4320 in tumour / Concentration of total AZD4320 in tumour: tumour tissue; for Mean concentration of total AZD4320 in tumour: mean of 3 samples
Source text: For tumour measurements, tumours were harvested, split into smaller pieces and snap frozen in liquid nitrogen. Frozen tumour samples were subsequently weighed and then homogenised for both ‘released’ and ‘total’ AZD4320. For ‘released’ AZD4320, samples were homogenised on ice with an equal volume (w/v) of blank plasma containing 0.2 M citric acid. The samples were then processed according to the aforementioned plasma approach. For ‘total’ AZD4320, samples were homogenised with an equal volume of plasma (w/v) and then processed according to the aforementioned ‘total’ approach.
Sample analyses were performed in batches containing study samples, calibration standards at 10 concentration levels, QC samples at three concentration levels in duplicate and blank samples. The analytical run acceptance criteria for calibration standards and QC samples was that at least 75% of back-calculated concentrations for calibration standards and at least 2/3 of the QC samples (at least 50% at each concentration level) should be within ±20% (±25% at LLOQ) from nominal value.
Female C.B.−17 SCID mice were purchased from Charles River Laboratories. Mice were 5–8 weeks old at the time of tumour implantation. All xenograft studies were conducted at our Association for the Assessment and Accreditation of Laboratory Animal Care accredited facility in Waltham, MA in accordance with ethical regulations described in the guidelines established by the internal Institutional Animal Care and Use Committee. The dendrimer conjugates were formulated in citrate/phosphate buffer pH 5.0, diluted 1:10 with 5% glucose containing 1% w/v Kolliphor HS15, and AZD4320 was formulated in 30% HP-β-CD and dosed as a weekly intravenous (IV) administration at a volume of 5 ml/kg at the indicated doses. Five million RS4;11, five million SUDHL-4 or five million OCI-LY-10 cells were injected subcutaneously in the right flank of mice in a volume of 0.1 ml. Tumour volumes (measured by caliper), animal body weight, and tumor condition were recorded twice weekly for the duration of the study. The tumour volume was calculated (taking length to be the longest diameter across the tumour and width to be the corresponding perpendicular diameter) using the formula: length (mm) x width (mm)^2/0.52. For efficacy studies, mice were randomized based on tumour volumes using stratified sampling and enrolled into control and treatment groups. Tumour growth inhibition from the start of treatment was quantified by measuring the difference in tumour volume between control and treated groups. Survival analysis was evaluated using Mantel-Cox test. Tumours were also taken for bioanalysis.

[2] = RS4;11, single dose AZD0466 34 mg/kg, 3 h, 34 mg/kg
[3] = RS4;11, single dose AZD0466 34 mg/kg, 8 h, 34 mg/kg
[4] = RS4;11, single dose AZD0466 34 mg/kg, 24 h, 34 mg/kg
[5] = RS4;11, single dose AZD0466 34 mg/kg, 48 h, 34 mg/kg
[6] = RS4;11, single dose AZD0466 34 mg/kg, 72 h, 34 mg/kg
[7] = RS4;11, single dose AZD0466 103 mg/kg, 3 h, 103 mg/kg
[8] = RS4;11, single dose AZD0466 103 mg/kg, 8 h, 103 mg/kg
[9] = RS4;11, single dose AZD0466 103 mg/kg, 24 h, 103 mg/kg
[10] = RS4;11, single dose AZD0466 103 mg/kg, 48 h, 103 mg/kg
[11] = RS4;11, single dose AZD0466 103 mg/kg, 72 h, 103 mg/kg

AZD4320-MIDA-PEG2100 [AZD0466]
CC3 PD fold over vehicle, individual tumours (cleaved caspase-3 (CC3); RS4;11, single dose AZD0466 34 mg/kg (10mg/kg AZD4320), 3 hr): 1.1 fold over vehicle (2×) and 0.9 fold over vehicle | CC3 PD fold over vehicle, individual tumours (cleaved caspase-3 (CC3); RS4;11, single dose AZD0466 34 mg/kg (10mg/kg AZD4320), 8 hr): 1.1 fold over vehicle and 1.5 fold over vehicle and 1 fold over vehicle | CC3 PD fold over vehicle, individual tumours (cleaved caspase-3 (CC3); RS4;11, single dose AZD0466 34 mg/kg (10mg/kg AZD4320), 24 hr): 12.2 fold over vehicle and 4.6 fold over vehicle and 5.3 fold over vehicle | CC3 PD fold over vehicle, individual tumours (cleaved caspase-3 (CC3); RS4;11, single dose AZD0466 34 mg/kg (10mg/kg AZD4320), 48 hr): 8.7 fold over vehicle and 9 fold over vehicle and 11 fold over vehicle | CC3 PD fold over vehicle, individual tumours (cleaved caspase-3 (CC3); RS4;11, single dose AZD0466 34 mg/kg (10mg/kg AZD4320), 72 hr): 1.8 fold over vehicle and 1.4 fold over vehicle and 2.1 fold over vehicle | CC3 PD fold over vehicle, individual tumours (cleaved caspase-3 (CC3); RS4;11, single dose AZD0466 103 mg/kg (30mg/kg AZD4320), 3 hr): 6.8855 fold over vehicle and 4.506 fold over vehicle and 6.287 fold over vehicle | CC3 PD fold over vehicle, individual tumours (cleaved caspase-3 (CC3); RS4;11, single dose AZD0466 103 mg/kg (30mg/kg AZD4320), 8 hr): 52.0454 fold over vehicle and 56.5349 fold over vehicle and 45.3617 fold over vehicle | CC3 PD fold over vehicle, individual tumours (cleaved caspase-3 (CC3); RS4;11, single dose AZD0466 103 mg/kg (30mg/kg AZD4320), 24 hr): 82.2669 fold over vehicle and 79.7603 fold over vehicle and 78.3412 fold over vehicle | CC3 PD fold over vehicle, individual tumours (cleaved caspase-3 (CC3); RS4;11, single dose AZD0466 103 mg/kg (30mg/kg AZD4320), 48 hr): 33.7478 fold over vehicle and 42.9825 fold over vehicle and 23.216 fold over vehicle | CC3 PD fold over vehicle, individual tumours (cleaved caspase-3 (CC3); RS4;11, single dose AZD0466 103 mg/kg (30mg/kg AZD4320), 72 hr): 7.7976 fold over vehicle and 4.512 fold over vehicle and 6.025 fold over vehicle | Concentration of Released AZD4320 in Tumour, Mean ([1]; 1 hr): 8.1 ng/mL | Concentration of Released AZD4320 in Tumour, individual samples (Fig 5g/5h) ([1]; 1 hr): 8.2 ng/mL and 11.2 ng/mL and 4.7 ng/mL | Concentration of Released AZD4320 in Tumour, Mean ([1]; 3 hr): 15.1 ng/mL | Concentration of Released AZD4320 in Tumour, individual samples (Fig 5g/5h) ([1]; 3 hr): 16 ng/mL and 18.8 ng/mL and 10.4 ng/mL | Concentration of Released AZD4320 in Tumour, Mean ([1]; 9 hr): 109 ng/mL | Concentration of Released AZD4320 in Tumour, individual samples (Fig 5g/5h) ([1]; 9 hr): 178.8 ng/mL and 71.4 ng/mL and 78 ng/mL | Concentrations of Total AZD4320 in Tumour, individual samples ([1]; 9 hr): 1886 ng/mL and 831 ng/mL and 866 ng/mL | Concentration of Released AZD4320 in Tumour, Mean ([1]; 20 hr): 244 ng/mL | Concentration of Released AZD4320 in Tumour, individual samples (Fig 5g/5h) ([1]; 20 hr): 214.9 ng/mL and 250.1 ng/mL and 267.9 ng/mL | Concentration of Released AZD4320 in Tumour, Mean ([1]; 48 hr): 389 ng/mL | Concentration of Released AZD4320 in Tumour, individual samples (Fig 5g/5h) ([1]; 48 hr): 493.9 ng/mL and 123.4 ng/mL and 550.2 ng/mL | Concentrations of Total AZD4320 in Tumour, individual samples ([1]; 48 hr): 1152 ng/mL and 319 ng/mL and 1257 ng/mL | Concentration of Released AZD4320 in Tumour, Mean ([1]; 72 hr): 462 ng/mL | Concentration of Released AZD4320 in Tumour, individual samples (Fig 5g/5h) ([1]; 72 hr): 290.2 ng/mL and 611.5 ng/mL and 485 ng/mL | Tumor PK Released AZD4320, individual tumours [1, 2]: 16 ng/g and 18.8 ng/g and 10.4 ng/g | Tumor PK Total AZD4320, individual tumours [1, 2]: 621 ng/g and 697 ng/g and 376 ng/g | Tumor PK Released AZD4320, individual tumours [1, 3]: 179 ng/g and 71.4 ng/g and 78 ng/g | Tumor PK Total AZD4320, individual tumours [1, 3]: 1886 ng/g and 831 ng/g and 866 ng/g | Tumor PK Released AZD4320, individual tumours [1, 4]: 215 ng/g and 250 ng/g and 268 ng/g | Tumor PK Total AZD4320, individual tumours [1, 4]: 926 ng/g and 923 ng/g and 1118 ng/g | Tumor PK Released AZD4320, individual tumours [1, 5]: 494 ng/g and 123 ng/g and 550 ng/g | Tumor PK Total AZD4320, individual tumours [1, 5]: 1152 ng/g and 319 ng/g and 1257 ng/g | Tumor PK Released AZD4320, individual tumours [1, 6]: 290 ng/g and 612 ng/g and 485 ng/g | Tumor PK Total AZD4320, individual tumours [1, 6]: 536 ng/g and 983 ng/g and 719 ng/g | Tumor PK Released AZD4320, individual tumours [1, 7]: 227 ng/g and 79 ng/g and 90 ng/g | Tumor PK Total AZD4320, individual tumours [1, 7]: 5852 ng/g and 2518 ng/g and 2703 ng/g | Tumor PK Released AZD4320, individual tumours [1, 8]: 1407 ng/g and 1218 ng/g and 972 ng/g | Tumor PK Total AZD4320, individual tumours [1, 8]: 14358 ng/g and 9822 ng/g and 9418 ng/g | Tumor PK Released AZD4320, individual tumours [1, 9]: 1730 ng/g and 1595 ng/g and 1484 ng/g | Tumor PK Total AZD4320, individual tumours [1, 9]: 4335 ng/g and 4133 ng/g and 3920 ng/g | Tumor PK Released AZD4320, individual tumours [1, 10]: 3581 ng/g and 4025 ng/g and 5214 ng/g | Tumor PK Total AZD4320, individual tumours [1, 10]: 6225 ng/g and 5604 ng/g and 9523 ng/g | Tumor PK Released AZD4320, individual tumours [1, 11]: 3295 ng/g and 5783 ng/g and 7049 ng/g | Tumor PK Total AZD4320, individual tumours [1, 11]: 6132 ng/g and 7039 ng/g and 8246 ng/g | Mean concentration of total AZD4320 in tumour ([1]; 1 hr): 536 ng/mL | Concentration of total AZD4320 in tumour ([1]; 1 hr): 553 ng/mL and 665 ng/mL and 390 ng/mL | Mean concentration of total AZD4320 in tumour ([1]; 3 hr): 565 ng/mL | Concentration of total AZD4320 in tumour ([1]; 3 hr): 621 ng/mL and 697 ng/mL and 376 ng/mL | Mean concentration of total AZD4320 in tumour ([1]; 9 hr): 1194 ng/mL | Mean concentration of total AZD4320 in tumour ([1]; 20 hr): 989 ng/mL | Concentration of total AZD4320 in tumour ([1]; 20 hr): 926 ng/mL and 923 ng/mL and 1118 ng/mL | Mean concentration of total AZD4320 in tumour ([1]; 48 hr): 909 ng/mL | Mean concentration of total AZD4320 in tumour ([1]; 72 hr): 746 ng/mL | Concentration of total AZD4320 in tumour ([1]; 72 hr): 536 ng/mL and 983 ng/mL and 719 ng/mL
